The record followed here is the DeepSol protein solubility set.

This data set is described as follows: soluble on expression in E. coli; label from the status in PepcDB or PDB records.
With “MTSTTPLEPERWTPHATVATIVEKDGKFLLVEEKRLINSQGDFGIVYNQPAGHVDEGESIMAAAIRETLEETRWQVKLKHLVGIYIFTAPANNVTYHRYCFAAEATVHQAESQLDDGILDAKWLSWEEIQQLDNLRSPLVKRCIKDHIDGKHYPLDVIYEYADHEHTDDENKSQELEDRND”, the “soluble on expression in E. coli” value is reported as “soluble”.

In the case of “MKTGDKQFAVIGLGRFGLAVCKELQDSGSQVLAVDINEDRVKEAAGFVSQAIVANCTHEETVAELKLDDYDMVMIAIGADVNASILATLIAKEAGVKSVWVKANDRFQARVLQKIGADHIIMPERDMGIRVARKMLDKRVLEFHPLGSGLAMTEFVVGSRLMGKTLSDLALCKVEGVQVLGFKRGPEIIKAPDMSTTLEIGDLIIVVGPQDKLANKLKSLLEHHHHHH”, the “soluble on expression in E. coli” value is recorded as “not soluble”.

Regarding “MLVRKVCQNFFQNALAPFHKYRQSALMDATVALINGASLTLTSIGRFLPGQAQVKNKIKRVDRLLGNESLHRDIPLIFNNIIAMLTRKLSLCVVAVDWSGYHSHEYHILRASLICDGRSIPLLSQIVPSAEQQSEQIHKTFLNALARAVNPDARVILEHHHHHH”, the “soluble on expression in E. coli” value is reported as “not soluble”.

On to “MLRFDHLVHAVHGTPEEAAKQMQELGFHTVLGGEHTNWGTWNSLSYFDLSYIEFLAVQYEEKAKEAENPLVQETVVKLQNGEGMLQIAIRTDAIEELAVNFNKYGLHTIGPFEGKRMRKDGRLLEWKMLFVKQEENGPKLPFFIQWNETDEERRNDLRNSGTITEHKNKVQQIETIHYAVKNVRETVRKWKEVMELSTSSVVKIEKWNAECQSVVFGDIHVQFCEPIGEGLVLEHLNKNGENPFAVEFKGGNKREHEVLGSLYIY”, for which the “soluble on expression in E. coli” value is listed as “not soluble”.

With “MSNVPAELKYSKEHEWLRKEADGTYTVGITEHAQELLGDMVFVDLPEVGATVSAGDDCAVAESVKAASDIYAPVSGEIVAVNDALSDSPELVNSEPYTGGWIFKIKASDESELESLLDATAYEALLEDE”, the “soluble on expression in E. coli” value is on record as “not soluble”.

Take “MGSDKIHHHHHHMADGAEFKVYTQRFIMEKIAYYLGQYHSLEENNAFWGEGFTEWHNVAKARPLFPSHRQPVLPGKLGFYDLRNNDTIEEQVALADSFGVTAFCHWHYWFGGKRVLYRPFDSMLKIQNSPVKVMLGWANESWTGIWHGLSDQVIFEQPYNKIELNEHAKLLADYFRHENYLKVNGKAAFLIYKPRKIPESKSYLQLLRQKVYENCGLDMYIIGTWGPGRLEVIHSADELGLDALVANNVGATFKSELSRKLYNGFWTAAKSLGLGPELRNYASTVKTLEYAHQNISGTVHSTIVTGWDNSPRSNRRALVLTNFNENSFKYAIDIAISNEKNNENKLLFIKSWNEWAEGNTLEPRFKEDWSLGKVLKKQIIKHDV”: the “soluble on expression in E. coli” value is “not soluble”.

On to “MKRYISIKGIGTYLPKRKVDSLEIDQMLDVPEGWTLKKAGVKTRYFVDGETSSYMGAEAAKKAVEDAKLTWDDIDCIICGSGTIQQAIPSTASLIQEQLGLQHSGIPCFDINSTCLSFITALDTISYAIECGRYKNVVIISSEISSVGLNWGQNESSILFGDGAAAVVITKGDHSSSIIASHMETYSSGAHLSEIRGGGTMIHPREYSEERKEDFLFDMNGRAIFKLSSKYLMKFIDKLLMDTGYSLADIDLIVPHQASGPAMRLIRKKLGVDEERFMTIFEDYGNMISASIPVALFEAIKQKKVQRGNKILLLGTSAGLSIGGILLEY”, for which the “soluble on expression in E. coli” value was “not soluble”.

As to “MTSRGITSLSNHLIPLSFPARLRIDQADKQAQAGLMKDHAQHTANIGKFQDSFVTADGQARASVPLSRPETLWFNTGTLCNIECANCYILSSPKNDALVYLSADEVSAYLDQIAARGWPVHEIGFTGGEPFMNPQIIAMSRTALERGFEVLILTNAMRPMMRKTMRLGVAALVRDFGDRLTLRVSVDHHSAACHDAERGAGSFARTLAGMVWLRDCGARMTVAGRTVWGESEAEARAGYAALYAEYGFAIDAFDPGQTVLFPEMDERVEVPEITTACWDILGKSPETVMCASSRMVVKRKGAAHPVVLACTLLPYAPEFELGQTLAEAERPVQLNHPHCAKFCVLGGASCSA”, the “soluble on expression in E. coli” value was “not soluble”.

In the case of “MNMIDQLNITDFQVFTDENSDKFVSKIYKFSSKMILSDFHAQPQGFLNGGASLALAEITAGMASNAIGSGQYFAFGQSINANHLNPKKCEGFVNARGLLLKNGKRNHVWEIKITDENETLISQITVVNALVPQKNSDKLEHHHHHH”, the “soluble on expression in E. coli” value was “soluble”.

With “MTTARWVIDKHLQNFHILCKFAGILKTNSFISVEDKAKLSEKLEKLDLYHRRNTGKSLDATTHKIKELSFYMFGYRDVCGQVTQKFLFSPLGNLFLKHLDNNEYIQKIFLTMLWAIPFPHPYIKTDESIQLYPMRLIFKLLSDERLDCKLFSYEYIYLISFVKSADQNSYEKLVQDILVLRTCAEVKIKHQLTAENSRSHAYVNAAHEWESYFSKTLTDAGVLQKTDGKIICRLKHGKTETYRKVTSSEFSIPKQLQEFVKKLQSAYSFSEMPLNLNDSDRLKIDVIKEIYSFYPKELLEEIGELKDEAAYELLHLPRLIEQYADNNNGTEAYLFEDVLEMGFNMFYNVEAKKIGGPGNTDLECLYITQKRKFAVEAKSTKNKLSGINSGRLEDHKNKIKAIYTIVVTPRYVPAVLSDIRNCPIVIIRANTFAEFLYNCLINRSSIPEIDYRYFDEIIIKNLGKDISSEISNLTMQQFASNTTMEAYST”, the “soluble on expression in E. coli” value is “not soluble”.

In the case of “MDKTQSYDIFLIAPPGLEQVLAEEATACGFDEPRVVPGGVETRGPWSEVMRANLVLRGAGRVLVRIGGFPAVHLAQLDKRARKFAWGDFLRPDRPIRVEAVSRKSKIYHAGAAKQRVERAITEELGAPISDEAEIRLMLRIERDFCTFSIDTSGEALHKRGHKEAVGKAPMRETMAALFLRQCGFDGAEPVLDPMCGSGSFVIEAAEWAAGLMPGRSRSFAFEQLAGFDAAQWQSMRNAAGAGGRPESLYSGSDRNAGAIDASRANATRAGVADFCAFHQRPVSDIRPPEGRPGLVIVNPPYGARIGDQARLRSLYGSLGKVLMDRFSGWRVGLITSEMSLARSTRLPFQAPGPVVDHGGIKVRLYQSVRLR”, the “soluble on expression in E. coli” value was “not soluble”.

As for “MGSDKIHHHHHHAPTSIPDSALRTAAQLREQALADSTGFAVVESLTTEVGPRIAGGEADPRAVAWAKAKFKSLGFDKVWTEPVTFPKWERRSEQAAVIGAHAQPLHITALGGSPGGTVEGEIVRFENLAALQAAPAGSLAGKIAFVDYQMVKARDGKDYGNGGAVRSKGPSEAIRKGAIGFVMRSAGTDSHRVPHTGITRFDEGLTPVPAAALSVPDANQLARLAALGSTRVRLALDCGWDGTATSYNVIGEITGRSKPKEVVVIGGHLDSWDLGTGAIDDGAGVAITMAAGHLIGQLKQAPKRTIRVVAFANEEQGLYGGKAYAAAHGKDAKDMALHQIGAESDFGAGRIYAFNTGSAAPEQSRAAT”, the “soluble on expression in E. coli” value is listed as “not soluble”.

Take “GSHMEVNLRMSWWGGNGRHQVTLKALEEFHKQHPNINVKAEYTGWDGHLSRLTTQIAGGTEPDVMQTNWNWLPIFSKDGTGFYNLFSVKEQLDLAQFDPKELQQTTVNGKLNGIPISVTARIFYFNDATWAKAGLEYPKTWDELLAAGKVFKEKLGDQYYPVVLEHQDTLALIRSYMTQKYNIPTIDEANKKFAYSPEQWVEFFTMYKTMVDNHVMPSTKYYASFGKSNMYEMKPWINGEWAGTYMWNSTITKYSDNLTKPAKLVLGPYPMLPGAKDAGLFFKPAQMLSIGKSTKHPQESAMLINFLLNSKEGVEALGLERGVPLSATAVTQLRASGVIKDEDPSVAGLNMALELPHKMTTSPYFDDPQIVSLFGDAIQYIDYGQKTVQETAEYFNKQGDRILKRAMR”: the “soluble on expression in E. coli” value is “soluble”.

On to “MQNAEKLDFKITGGWIIDGTGAPRRRADLGVRDGRIAAIGELGAHPARHAWDASGKIVAPGFIDVHGHDDLMFVEKPDLRWKTSQGITTVVVGNCGVSAAPAPLPGNTAAALALLGETPLFADVPAYFAALDAQRPMINVAALVGHANLRLAAMRDPQAAPTAAEQQAMQDMLQAALEAGAVGFSTGLAYQPGAVAQAAELEGLARVAAERRRLHTSHIRNEADGVEAAVEEVLAIGRGTGCATVVSHHKCMMPQNWGRSRATLANIDRAREQGVEVALDIYPYPGSSTILIPERAETIDDIRITWSTPHPECSGEYLADIAARWGCDKTTAARRLAPAGAIYFAMDEDEVKRIFQHPCCMVGSDGLPNDARPHPRLWGSFTRVLGRYVREARLMTLEQAVARMTALPARVFGFAERGVLQPGAWADVVVFDPDTVADRATWDEPTLASVGIAGVLVNGAEVFPQPPADGRPGQVLRAGA”, for which the “soluble on expression in E. coli” value is given as “soluble”.

Turning to “MALREMIIDESDDIESYSDQSLCLDKAKELLALIKLPTGLLPLKDMTEVGYNKTKGFVWMRMRSKIEHTFREIGRRVLYDTEITAFVEDRRMRRLTGVKSKELMIWVPVNDIFIKRKILRRSPLLIPPACHEHLKFQHFNVRVDKLKEKRSNQTSLM”, the “soluble on expression in E. coli” value is “not soluble”.

On to “SNADRRYKWQTVVSEQLVGAGFNEILNNSLTAGSYYEGLKSHPREMAVELMNPLSQELNCMRQTLLFGGLETLSHNLRRKHLSLYLFEWGKCYRFHAAKRTDETPLAAYAEDDRLGIWICGQRVHNSWAHPEEPTSVFELKAVVEQVLCRVGIETGAYTLKTADNDLYASAMEVKTRSGKLLGTFGTVSTELIKRFEIEQPVYFAELLWDALM”, for which the “soluble on expression in E. coli” value is “soluble”.

As for “MGSDKIHHHHHHMIIRAGYNIAFQCFQETPINLLLSVHPSRAQHVIGEHVIKFSPDVPSHDFTDMFGNVCTRIVAPAGRIDISNDFLIEDTGLPDEVAPGAREIPVAELPDEVMVYLLGSRYCDTDKLATLAWSMFGGIPSGWQRVQAIVDYVHNHITFGYQFARNDRTASEGHAEQIGVCRDFAHLAVTLCRCMNIPARYCTGYLGDIGVPQDPAPMDFSAWFEVYLDGRWYTFDARHNHPRIGRIVIARGRDAADVAISTSFGTANLLNFEVITHEVTDQAAVTDARLQKVA”, the “soluble on expression in E. coli” value is on record as “not soluble”.

“MDYEIENNHADSIRRGSIEVICGSMFSGKTEELLRRLRRAKIARQTVEIFKPTIDIRYDETDVVSHDKNAIASTPVDNSANILLLSSQVDVVGIDEAQFFDEGLVEVAQQLADQGVRVVIAGLDMDFRRQPFGPMPGLCAIADSVTKVHAVCVECGRLASYSFRRVQGDQQVMLGELNEYSPLCRTCYRKCSSPPQTEEIHSTI”: the “soluble on expression in E. coli” value is on record as “not soluble”.

Consider “MGHHHHHHSHMSNWLEHSVQVEVEAPIDLVWGLWADLEQMPNWMKWIDSVKVPPENPDLSLWKLNTGGLEFTWKSRITKVITNQIIQWESIDGLPNQGAIRFYDRHGHSIVKMTISYAIPGFLGKIMDNLFLG”, for which the “soluble on expression in E. coli” value is recorded as “not soluble”.

Consider “GPGSMAEEIRTMIIGTSSAFRANVLREHFGDRFRNFVLLPPDIDEKAYRAADPFELTESIARAKMKAVLEKARQHSPPISGPAIALTFDQVVVKGDEVREKPLSTEQCRSFIASYSGGGVRTVATYALCVVGTENVLVAHNETETFFSKFGDDIVERTLERGACMNSAGGLVVEDEDMSRHVVRIVGTSYGVRGMEPAVVEKLLSQL”, for which the “soluble on expression in E. coli” value is recorded as “soluble”.
